From patent US20200199216A1 (KINDRED BIOSCIENCES, published 2020)

What was measured:
[1] = molecular target: T1, canine IL17A (as used at 1 nM in the H1080 cell assay) (canine); experiment: cell-based or functional assay
T1 chain: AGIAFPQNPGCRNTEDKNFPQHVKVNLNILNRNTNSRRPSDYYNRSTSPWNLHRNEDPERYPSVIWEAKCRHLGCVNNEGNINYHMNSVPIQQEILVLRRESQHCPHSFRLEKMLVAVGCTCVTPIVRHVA

canine IL17A-huFc [2] = molecular target: T2, canine IL17A-huFc (canine); experiment: BLI (Octet); canine IL17A-huFc captured on anti-human Fc sensors, antibody at 10 µg/mL
T2 construct: also called canine IL17A-hFc; not shown: human Fc on the C-terminal
T2 chain: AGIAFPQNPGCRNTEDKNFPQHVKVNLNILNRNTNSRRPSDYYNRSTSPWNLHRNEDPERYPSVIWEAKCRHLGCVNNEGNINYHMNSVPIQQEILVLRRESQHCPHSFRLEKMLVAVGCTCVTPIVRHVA
Experimental: Briefly, antibody concentrations were measured by protein A assay using Biosensor Octet (Forte Bio). Canine IL17A-huFc was captured to anti-human Fc bound biosensors. The association of anti-IL17A antibody from clones A, C, D, and E to the canine IL17A-huFc was monitored for 90 seconds. Dissociation was monitored for 600 seconds. A buffer only blank curve was subtracted to correct for any drift. The data were fit to a 1:1 binding model using ForteBio™ data analysis software to determine the kon, koff, and the Kd. The buffer for dilutions and all binding steps was: 20 mM phosphate, 150 mM NaCl, pH 7.2.

canine IL17A-huFc [3] = molecular target: T2, canine IL17A-huFc; experiment: ELISA; canine IL17A-huFc captured on anti-human Fc, detection goat anti-mouse Fc-HRP
Experimental: Binding affinity of monoclonal antibodies A, B, C, D, and E to canine IL17A-huFc polypeptide was analyzed by ELISA. In the binding ELISA performed, the wells were coated with anti-human Fc antibody. Canine IL17A-huFc protein was then added to the wells. Antibody purified from each of the five hybridoma clones was added to the wells at various concentrations (19.35 nM, 6.45 nM, 2.15 nM, 0.75 nM, 0.24 nM, 0.08 nM, 0.03 nM, and 0 nM). Goat anti-mouse Fc-HRP was added and color was developed. […] Table 3 below provides the EC50 values associated with the binding ELISA for each of the clones.

canine IL17A-polyHis = molecular target: T3, canine IL17A-polyHis (canine, biotinylated (EZ-Link NHS-LC-biotin) in the biosensor assays); experiment: BLI (Octet); biotinylated canine IL17A-polyHis on streptavidin sensors, antibody 0-220 nM, 1:1 model
T3 construct: also called biotinylated canine IL17A-polyHis; not shown: poly-His tag on the C-terminal
T3 chain: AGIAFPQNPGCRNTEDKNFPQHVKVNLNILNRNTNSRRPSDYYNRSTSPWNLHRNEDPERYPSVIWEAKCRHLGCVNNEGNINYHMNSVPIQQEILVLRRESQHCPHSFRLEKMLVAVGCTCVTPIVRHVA
Experimental: The binding analysis was performed using a Biosensor Octet as follows. Briefly, canine IL17A-polyHis, which was expressed and purified from CHO-S cells, was biotinylated using EZ-Link NHS-LC-biotin (Catalog No. 21336, Thermo Scientific). Free, unreacted biotin was removed from biotinylated IL17A by dialysis. Biotinylated canine IL17A was captured on streptavidin sensor tips (Catalog No. 18-509, ForteBio). The association of different concentrations (0 nM, 18.33 nM, 45.87 nM, 110 nM, 220 nM) of hybridoma Clone C or caninized Clone C antibody to canine IL17A was monitored for 90 seconds. Dissociation was monitored for 600 seconds. A buffer only blank curve was subtracted to correct for any drift. The data were fit to a 1:1 binding model using ForteBio™ data analysis software to determine the kₒₙ, koff, and the Kd. The buffer for dilutions and all binding steps was: 20 mM phosphate, 150 mM NaCl, pH 7.2.

[4] = molecular target: T4, canine IL17A-hFc-polyHis Mutant 3 (Q103R); experiment: Western blot of 3-fold concentrated 293 supernatants, 25 µL per lane, SDS-PAGE with or without DTT, PVDF, probed with Clone C
T4 IL17A-hFc-polyHis fusion chain: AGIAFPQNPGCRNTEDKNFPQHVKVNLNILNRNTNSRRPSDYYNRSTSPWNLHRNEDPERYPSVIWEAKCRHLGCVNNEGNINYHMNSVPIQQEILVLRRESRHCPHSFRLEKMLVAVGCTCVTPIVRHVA
Experimental: (§1) Plasmid constructs containing nucleotide sequences encoding each of the canine IL17A-hFC-polyHis mutants were transiently transfected into 293 cells and the supernatants concentrated 3-fold. Each mutant was separated by SDS-PAGE (25 μL per lane) in the presence or absence of DTT and the proteins transferred to a PVDF membrane. The blot was probed using either Clone C antibody or anti-human IgG Fc (control).

[5] = molecular target: T5, canine IL17A-hFc-polyHis Mutant 5 (C-terminal deletion of amino acids 126-131); experiment: as above
T5 IL17A-hFc-polyHis fusion chain: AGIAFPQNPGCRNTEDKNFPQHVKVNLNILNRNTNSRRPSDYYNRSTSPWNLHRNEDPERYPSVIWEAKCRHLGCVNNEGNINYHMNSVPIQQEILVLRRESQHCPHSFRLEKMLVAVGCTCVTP
Experimental: as §1

[6] = molecular target: T6, canine IL17A-hFc-polyHis Mutant 1 (R71L, L73W, I82T) (canine); experiment: as above
T6 construct: Tested as 3-fold concentrated supernatant of transfected 293 cells; not shown: human Fc; poly-His tag
T6 chain: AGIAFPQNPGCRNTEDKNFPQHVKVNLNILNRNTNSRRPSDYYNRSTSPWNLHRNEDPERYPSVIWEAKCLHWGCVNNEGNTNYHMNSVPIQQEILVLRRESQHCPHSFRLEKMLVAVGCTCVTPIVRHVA
Experimental: as §1

equine IL17A-polyHis = molecular target: T7, equine IL17A-polyHis (equine, biotinylated in the biosensor assay); experiment: BLI (Octet); biotinylated equine IL17A-polyHis on streptavidin sensors, antibody 20 µg/mL; BLI (Octet), biotinylated equine IL17A-polyHis on streptavidin sensor, antibody 20 µg/mL
T7 construct: not shown: poly-His tag on the C-terminal
T7 chain: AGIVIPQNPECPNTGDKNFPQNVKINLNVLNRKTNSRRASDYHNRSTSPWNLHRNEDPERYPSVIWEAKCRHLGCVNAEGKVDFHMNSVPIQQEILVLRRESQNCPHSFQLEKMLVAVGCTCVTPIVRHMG
Experimental: The binding analysis was performed using a Biosensor Octet as follows. Both feline IL17A-polyHis and equine IL17A-polyHis were biotinylated and immobilized to streptavidin biosensors. The association of monoclonal antibody Clones A, C, D, and E (20 μg/mL) to either feline or […] IL17A-polyHis was monitored for 90 seconds. Dissociation was monitored for 600 seconds. A buffer only blank curve was subtracted to correct for any drift. The data were fit to a 1:1 binding model using ForteBio™ data analysis software to determine the kₒₙ, koff, and the Kd. The buffer for dilutions and all binding steps was: 20 mM phosphate, 150 mM NaCl, pH 7.2. […] Weak binding signals of Clone A to feline IL17A and Clone C to feline IL17A were observed.

B1: mouse monoclonal antibody Clone C (antibody, mouse IgG1, V domains shown)
VH: EVQLVESGGGLVQPGGSLKLSCAASGFTFSSYGMSWVRQTPDKRLELVAIINSNGGSTYYPDSVKGRFTISRDNDKNSLYLQMSSLKSEDTAMYYCVRCHYDYERVFDYWGQGTTLTVSS
VL: DIQMTQSSSYLSVSLGGRVTITCKANDHINNWLAWYQQKPGNAPRLLISGSTSLETGVPSRFSGSGSGKDYTLSITSLQTEDVATYYCQQYWSTPFTFGSGTKLEIK
notes: Hybridoma antibody; also called hybridoma Clone C
- EC50 (ng/mL), H1080 Cell Functional Assay (IL6 secretion) [1]: 7 ng/mL
- Kd (canine IL17A-huFc [2]): < 10 nM
- EC50 (canine IL17A-huFc [3]): 0.2 ng/mL
- Kd (canine IL17A-polyHis): 7.9 nM
- binding result [4]: binds
- binding result [5]: binds
- binding result [6]: binds
- Kd (equine IL17A-polyHis): 0.13 nM
